According to patent US11286304B2, “Anti-galectin-7 antibody, kit comprising the same, and uses thereof” (Academia Sinica, priority 2018, dated 2022):

Tests used:
Format in all cases: cell-based, human
IL-8 = IL-8 production by keratinocytes (ELISA); details: HaCaT and HEKn cells subjected to immune stimuli, ELISA
Protocol: (§1) To measure the concentrations of proinflammatory cytokines secreted by keratinocytes, 2×10^4 cells were seeded in 96-well plates. Cells were incubated for 24 hours and then treated with 50 μg/ml LPS, 100 ng/ml human TNF-α, 100 or 200 ng/ml human IL-17A, 200 ng/ml human IL-22, 100 ng/ml human IL-23, or 50 ng/ml IFN-γ at 37° C. for 48 hours. In addition, the MEK inhibitor PD98059 was added along with stimulation by LPS or IL-17A (48 hours). The supernatants were then collected and analyzed by ELISAs, which were performed using a specific combination of paired antibodies (capture and detection antibodies).

IL-6 = IL-6 production by keratinocytes (ELISA); details: HaCaT and HEKn cells subjected to immune stimuli, ELISA
Protocol: as §1

galectin-7 = assay: Galectin-7 expression in keratinocytes (real-time PCR, immunoblot); details: HaCaT cells, treated with cytokines for 2 days, immunoblot
Protocol: Human keratinocyte cell line HaCaT was maintained at 37° C. in Dulbecco's modified Eagle's medium (DMEM) supplemented with 10% of fetal bovine serum (FBS), 2 mM glutamine, 100 U/ml penicillin and 100 μg/ml streptomycin. Short hairpin RNA (shRNA) reagents were obtained from the National RNAi Core Facility located at the Institute of Molecular Biology and Genomic Research Center, Academia Sinica, supported by the National Core Facility Program for Biotechnology Grants of NSC. Four shRNAs with clone IDs of TRCN0000057393, TRCN0000057394, TRCN0000057395, and TRCN0000057396 were used to generate stable galectin-7 knockdown HaCaT clones. HaCaT cells were infected with one of the four shRNA-expressing lentiviruses and puromycin was employed to select stable cell clones after 3 days of infection. After puromycin selection, four individual pooled clones were cultured in puromycin-free medium for 2 weeks before further analysis. […]
Cells were harvested and lysed in RIPA lysis buffer containing 1% of Triton X-100 and a protease inhibitor cocktail, and total protein concentrations were measured with a protein assay kit. Proteins in the samples of the lysates with the same amounts of total protein were separated by sodium dodecyl sulfate polyacrylamide gel electrophoresis (SDS-PAGE) and analyzed by immunoblotting. […] Protein quantification was performed by software. […]

B1: IL-22: immune stimulus (protein, UniProt Q9GZX6 34-179, looked up)
Interleukin-22: APISSHCRLDKSNFQQPYITNRTFMLAKEASLADNNTDVRLIGEKLFHGVSMSERCYLMKQVLNFTLEEVLFPQSDRFQPYMQEVVPFLARLSNRLSTCHIEGDDLHIQRNVQKLKDTVKKLGESGEIKAIGELDLLFMSLRNACI
IL-8 production (IL-8): only IL-17A (FIG. 2), TNF-α, and LPS (data not shown) induced
IL-6 production (IL-6): only IL-17A (FIG. 2), TNF-α, and LPS (data not shown) induced

B2: IL-23: cytokine known to promote psoriatic inflammation (protein, UniProt Q9NPF7 20-189; P29460 23-328, looked up)
Interleukin-23 subunit alpha: RAVPGGSSPAWTQCQQLSQKLCTLAWSAHPLVGHMDLREEGDEETTNDVPHIQCGDGCDPQGLRDNSQFCLQRIHQGLIFYEKLLGSDIFTGEPSLLPDSPVGQLHASLLGLSQLLQPEGHHWETQQIPSLSPSQPWQRLLLRFKILRSLQAFVAVAARVFAHGAATLSP
Interleukin-12 subunit beta: IWELKKDVYVVELDWYPDAPGEMVVLTCDTPEEDGITWTLDQSSEVLGSGKTLTIQVKEFGDAGQYTCHKGGEVLSHSLLLLHKKEDGIWSTDILKDQKEPKNKTFLRCEAKNYSGRFTCWWLTTISTDLTFSVKSSRGSSDPQGVTCGAATLSAERVRGDNKEYEYSVECQEDSACPAAEESLPIEVMVDAVHKLKYENYTSSFFIRDIIKPDPPKNLQLKPLKNSRQVEVSWEYPDTWSTPHSYFSLTFCVQVQGKSKREKKDRVFTDKTSATVICRKNASISVRAQDRYYSSSWSEWASVPCS
IL-8 production (IL-8): only IL-17A (FIG. 2), TNF-α, and LPS (data not shown) induced
galectin-7 protein expression (galectin-7): modest effects
IL-6 production (IL-6): only IL-17A (FIG. 2), TNF-α, and LPS (data not shown) induced
